Measured values as given in patent US7098001B2, “Polypeptides having dipeptidyl aminopeptidase activity and nucleic acids encoding same” (Novozymes, Inc., priority 1997, dated 2006).

What was measured:
[1] = activity of the purified enzymes on Ala-Pro-pNA; assay type: biochemical; details: purified enzyme; extinction coefficient of 10000
Experimental: A polypeptide of the present invention is added to the proteinaceous substrate in an effective amount conventionally employed in protein hydrolysis processes, preferably in the range of from about 0.1 to about 100,000 dipeptidyl aminopeptidase units (DPAPU) per 100 g of protein, and more preferably in the range of from about 1 to about 10,000 dipeptidyl aminopeptidase units per 100 g of protein. As defined herein, one dipeptidyl aminopeptidase Unit (DPAPU) is the amount of enyzme needed to release 1 micromole of p-nitroanilide per minute from Ala-Pro-p-nitroanilide (Sigma Chemical Co., St. Louis Mo.) under specified conditions.
The sample was then loaded onto a column (XK-26) containing 60 ml of Q-Sepharose Big Beads, which had been pre-equilibrated with 400 ml of 20 mM sodium phosphate pH 7.0 buffer. The column was washed until baseline was reached. […] In a 96 well microtiter plate, 100 μl of the substrate solution was added to 100 μl of Aspergillus oryzae dipeptidyl aminopeptidase I (100 fold diluted in 50 mM sodium phosphate buffer pH 7.5) and the increase in absorbance at 405 nm was measured for 4 minutes using a SpectroMax 340 plate reader (Molecular Devices, Sunnyvale, Calif.). […]
The purified aminopeptidase I was determined to have an activity of 26.822 LAPUs/ml for Leu-pNA using an extinction coefficient of 10,000 for para-nitroaniline at 405 nm. […]

[2] = pH optimum / pH-activity profile of dipeptidyl aminopeptidase I with Ala-Pro-pNA; assay type: biochemical; details: for Average Activty: 2 mg/ml Ala-Pro-pNA, ambient temperature, 5 minutes; for Avg. Activity-Background: corrected for autohydrolysis of Ala-Pro-pNA
Experimental: The Ala-Pro-pNA substrate was prepared by dissolving 100 mg of Ala-Pro-pNA in 1 ml of DMSO and adding 20 μl of the Ala-Pro-pNA-DMSO solution to 980 μl of the universal buffer at the various pH values at ambient temperature. The assay was initiated by adding a 10 μl aliquot of the dipeptidyl aminopeptidase I diluted 20-fold in water to 200 μl of 2 mg/ml Ala-Pro-pNA at the various pH values. The absorbance at 405 nm was monitored for 5 minutes. Autohydrolysis of the substrate as a control was determined by adding 10 μl of water to 200 μl of 2 mg/ml Ala-Pro-pNA at the various pH values.

B1: dipeptidyl aminopeptidase I: Recombinant Aspergillus oryzae 1568 (ATCC 20386) dipeptidyl aminopeptidase I, 771 amino acids (SEQ ID NO:2), produced in Fusarium and purified (protein, listed as Aspergillus oryzae)
chain: MKYSKLLLLLVSVVQALDVPRKPHAPTGEGSKRLTFNETVVKQAITPTSRSVQWLSGAEDGSYVYAAEDGSLTIENIVTNESRTLIPADKIPTGKEAFNYWIHPDLSSVLWASNHTKQYRHSFFADYYVQDVESLKSVPLMPDQEGDIQYAQWSPVGNTIAFVRENDLYVWDNGTVTRITDDGGPDMFHGVPDWIYEEEILGDRYALWFSPDGEYLAYLSFNETGVPTYTVQYYMDNQEIAPAYPWELKIRYPKVSQTNPTVTLSLLNIASKEVKQAPIDAFESTDLIIGEVAWLTDTHTTVAAKAFNRVQDQQKVVAVDTASNKATVISDRDGTDGWLDNLLSMKYIGPIKPSDKDAYYIDISDHSGWAHLYLFPVSGGEPIPLTKGDWEVTSILSIDQERQLVYYLSTQHHSTERHLYSVSYSTFAVTPLVDDTVAAYWSASFSANSGYYILTYGGPDVPYQELYTTNSTKPLRTITDNAKVLEQIKDYALPNITYFELPLPSGETLNVMQRLPPGFSPDKKYPILFTPYGGPGAQEVTKRWQALNFKAYVASDSELEYVTWTVDNRGTGFKGRKFRSAVTRQLGLLEAEDQIYAAQQAANIPWIDADHIGIWGWSFGGYLTSKVLEKDSGAFTLGVITAPVSDWRFYDSMYTERYMKTLSTNEEGYETSAVRKTDGFKNVEGGFLIQHGTGDDNVHFQNSAALVDLLMGDGVSPEKLHSQWFTDSDHGISYHGGGVFLYKQLARKLYQEKNRQTQVLMHQWTKKDLEE
[1]
  activity for Ala-Pro-pNA: 11.54 DPAPU/ml
[2]; Ala-Pro-pNA as substrate
  pH of optimal activity: ~8.7
[2]; measured pH range
  pH range over which activity toward Ala-Pro-pNA was possessed: 4.35 to 9.83
[2]; pH 4.35
  Average Activty: 8.75 mOD/min
  Avg. Activity-Background: 8.75 mOD/min
[2]; pH 4.35, relative to pH 8.71
  Relative Activty: 0.023
[2]; pH 4.87
  Average Activty: 32.5 mOD/min
  Avg. Activity-Background: 32.5 mOD/min
[2]; pH 4.87, relative to pH 8.71
  Relative Activty: 0.088
[2]; pH 5.36
  Average Activty: 75.75 mOD/min
  Avg. Activity-Background: 75.75 mOD/min
[2]; pH 5.36, relative to pH 8.71
  Relative Activty: 0.20
[2]; pH 5.86
  Average Activty: 113.8 mOD/min
  Avg. Activity-Background: 113.8 mOD/min
[2]; pH 5.86, relative to pH 8.71
  Relative Activty: 0.307
[2]; pH 6.38
  Average Activty: 135.48 mOD/min
  Avg. Activity-Background: 135.48 mOD/min
[2]; pH 6.38, relative to pH 8.71
  Relative Activty: 0.365
[2]; pH 6.85
  Average Activty: 168.45 mOD/min
  Avg. Activity-Background: 166.45 mOD/min
[2]; pH 6.85, relative to pH 8.71
  Relative Activty: 0.45
[2]; pH 7.2
  Average Activty: 188.86 mOD/min
  Avg. Activity-Background: 186.86 mOD/min
[2]; pH 7.2, relative to pH 8.71
  Relative Activty: 0.503
[2]; pH 7.51
  Average Activty: 230.97 mOD/min
  Avg. Activity-Background: 227.97 mOD/min
[2]; pH 7.51, relative to pH 8.71
  Relative Activty: 0.615
[2]; pH 7.97
  Average Activty: 308.52 mOD/min
  Avg. Activity-Background: 302.72 mOD/min
[2]; pH 7.97, relative to pH 8.71
  Relative Activty: 0.817
[2]; pH 8.71
  Relative Activty: 1
  Average Activty: 383.15 mOD/min
  Avg. Activity-Background: 370.65 mOD/min
[2]; pH 9.32
  Average Activty: 247.68 mOD/min
  Avg. Activity-Background: 217.88 mOD/min
[2]; pH 9.32, relative to pH 8.71
  Relative Activty: 0.588
[2]; pH 9.83
  Average Activty: 171 mOD/min
  Avg. Activity-Background: 97 mOD/min
[2]; pH 9.83, relative to pH 8.71
  Relative Activty: 0.261
